This is an account of results in article PMC2174947, “Transcriptional regulation of human eosinophil RNases by an evolutionary- conserved sequence motif in primate genome”.

The data set concerns the target T1, GST-MAZ (UniProt P56270 1-477).
T1 sequence: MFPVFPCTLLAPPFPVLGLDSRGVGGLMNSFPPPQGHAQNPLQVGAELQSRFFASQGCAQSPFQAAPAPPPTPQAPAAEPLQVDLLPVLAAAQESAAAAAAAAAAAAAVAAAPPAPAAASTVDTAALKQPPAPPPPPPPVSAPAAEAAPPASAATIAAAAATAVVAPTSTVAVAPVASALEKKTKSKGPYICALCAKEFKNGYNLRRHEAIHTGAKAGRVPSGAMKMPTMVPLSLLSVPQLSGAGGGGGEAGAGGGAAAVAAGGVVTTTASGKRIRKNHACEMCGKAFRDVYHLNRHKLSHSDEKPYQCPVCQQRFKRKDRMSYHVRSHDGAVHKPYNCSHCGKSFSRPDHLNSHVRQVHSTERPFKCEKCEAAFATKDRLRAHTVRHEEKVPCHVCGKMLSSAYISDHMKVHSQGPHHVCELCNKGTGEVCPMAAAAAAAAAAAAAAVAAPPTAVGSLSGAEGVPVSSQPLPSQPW
As to the kind of experiment: EMSA; EMSA: 10 mM Tris-HCl pH 7.5, 50 mM NaCl, 5 mM MgCl2, 1 mM EDTA, 10% glycerol, 1 ug poly(dI-dC), 30 C 30 min; DAPA: 20 mM HEPES pH 7.6, 10 mM (NH4)2SO4, 1 mM EDTA, 1 mM DTT, 1% Tween 20, 100 mM KCl, 4 C. The note with it: protein: recombinant; label: 32P 5' end; blunt. (Mobility shift assays separate free from complexed probe on a gel.)

B1: wt 34-nt EMSA probe (dsDNA)
DNA 1: GCCAAGAGCCAGACCCTCCCTCTGGGCTCTGCTGGCCCA
DNA 2: TGGGCCAGCAGAGCCCAGAGGGAGGGTCTGGCTCTTGGC
In the case of B1, the binding result is “binds”.
